Measured values reported in paper PMC8263772.

Target: dog angiotensin-converting enzyme 2 (dACE2) ectodomain, 6xHis (dog)
Assay: SPR

Substance: SARS-CoV-2 spike (S) protein receptor binding domain (RBD), wild type (from UniProt P0DTC2) (domain or fragment)
- Kd: 0.123 µM
